Measured values reported in PMC10474089, “Activation of oxidoreductases by the formation of enzyme assembly” (Scientific Reports, 2023).

Columns and labels:
[1] = target: D-lactate dehydrogenase (DLD) from Gluconobacter oxydans (Gluconobacter oxydans); experiment: SEC; Superdex 200 10/300 GL, 25 °C, 0.75 ml/min, 150 mM NaCl, 0.1 mM DTT, 1 mM EDTA, 25 mM Tris-HCl pH 7.5; assembly state against gel filtration standards
[2] = target: L-lactate oxidase (LOX) derived from Enterococcus faecium (Enterococcus faecium); experiment: as above
[3] = target: Poly-L-lysine (PLL) hydrobromide (molecular weight: 4000–15,000 Da)
[4] = target: the molecule itself; experiment: SEC; Superdex 200 10/300 GL, 25 °C, 0.75 ml/min, 150 mM NaCl, 0.1 mM DTT, 1 mM EDTA, 25 mM Tris-HCl pH 7.5; assembly state against gel filtration standards

For “D-lactate dehydrogenase (DLD) from Gluconobacter oxydans (enzyme)”, the stoichiometry N [1] was 4.

“L-lactate oxidase (LOX) derived from Enterococcus faecium (enzyme)” gave a stoichiometry N [2] of 4 and an enzyme activity (DCIP assay, 25 nM LOX) with 1 mM PLL against without PLL, at pH 7 and pH 8 [3] of 7.5 fold.

B1: Acetaldehyde dehydrogenase (ALDH) from Sphingomonas wittichii (enzyme)
chain: AQAPITGGRPFADKPFKVEEVARFDSPWAMTFLPGGHMLVTEKAGRLLLLSPDGARRTAVEGVPAVDSSGQGALGEVVAHPDFATNGLVYFSYSAPGSPNGIVLARGKLVGDLGGARLEGVTTLYRAHPLKSGGHYAGRIAFSPDGHLFFSMGERQKFTPAQEPDGVLGKVVRLTMDGQPAPGNPLAAKGFDPAVWSYGHRNPLGLAFDLEGRLWDAEMGPKGGDEVNLILPGRNYGWPIVSNGDHYDGKPIPDHVTRPEFEAPKVSWNPSISPSSLLVYSGKLFPQWRGKALVGALSGEMLILVDLGEEGAKEEARYAMGQRIRAVDQGPDGAVYVLEDKAGGRLLRLMPAG
In the case of B1, the “stoichiometry N” value [4] is reported as 2.

B2: Glucose dehydrogenase (GDH) from Acinetobacter calcoaceticus (enzyme, UniProt P13650 25-478, looked up)
chain: DVPLTPSQFAKAKSENFDKKVILSNLNKPHALLWGPDNQIWLTERATGKILRVNPESGSVKTVFQVPEIVNDADGQNGLLGFAFHPDFKNNPYIYISGTFKNPKSTDKELPNQTIIRRYTYNKSTDTLEKPVDLLAGLPSSKDHQSGRLVIGPDQKIYYTIGDQGRNQLAYLFLPNQAQHTPTQQELNGKDYHTYMGKVLRLNLDGSIPKDNPSFNGVVSHIYTLGHRNPQGLAFTPNGKLLQSEQGPNSDDEINLIVKGGNYGWPNVAGYKDDSGYAYANYSAAANKSIKDLAQNGVKVAAGVPVTKESEWTGKNFVPPLKTLYTVQDTYNYNDPTCGEMTYICWPTVAPSSAYVYKGGKKAITGWENTLLVPSLKRGVIFRIKLDPTYSTTYDDAVPMFKSNNRYRDVIASPDGNVLYVLTDTAGNVQKDDGSVTNTLENPGSLIKFTYKAK
notes: PQQ-dependent glucose dehydrogenase, Acinetobacter calcoaceticus; expression vector pET22b-acGDH, a gift from Aisin Cosmos R&D; printed mass 53.7 kDa, calculated pI 8.93; also called acGDH
With B2 the “stoichiometry N” value [4] was 4.
